Measurements reported in patent US20210213145A1 (TAYU HUAXIA BIOTECH MEDICAL GROUP, published 2021).
Changes are numbered by the printed parent chain. Each block holds one binder with its values, some of them ahead of it.

What was measured:
[1] = target: T1, mouse PD-L1 on transfected CHO cells (mouse, UniProt Q9EP73 19-290); test: flow cytometry on CHO/mPD-L1 cells, one antibody amount, not given
T1 construct: whole, on cells; also called mPD-L1; CHO/mPD-L1
Protocol: CHO cells transfected with mouse PD-L1 (CHO/mPD-L1) were used to assess the species cross-reactivity of the anti-hPD-L1 mAb with mouse PD-L1. The cells were incubated with the anti-hPD-L1 mAb prior to flow cytometry analysis.

hPD-L1mIg fusion protein [2] = target: T2, hPD-L1mIg fusion protein (human, UniProt Q9NZQ7 19-238); test: SPR, Biacore T200; hPD-L1 mIg amine-coupled on CM5 chip, antibody injected at 1-32 nM, full kinetic analysis
T2 construct: also called hPD-L1 mIg protein; biotin-labeled hPD-L1-mouse Fc fusion protein; not shown: mouse Ig (Fc) part
Protocol: The binding affinities and kinetics between the humanized anti-hPD-L1 mAbs and the hPD-L1 protein were assessed with Biacore T200 (GE Healthcare Life Sciences). The hPD-L1 mIg protein was immobilized on the sensor chip CM5 by amine coupling. The parental and humanized antibodies were injected at a concentration gradient of 1, 2, 4, 8, 16, and 32 nM. Binding kinetic parameters, including association rate (Kₒₙ), dissociation rate (Koff), and affinity constant (KD) were determined by full kinetic analysis. […] As shown in Table 7 and FIG. 4, the antibodies with dissociation rates (Koff) from the lowest to the highest were: parental (PA200), H1+L2 (H12), H3+L2 (H32), H1+L1 (H11), H1+L3 (H13), H3+L1 (H31), H3+L3 (H33), H2+L2 (H22), H2+L1 (H21), and H2+L3 (H23).

hPD-L1mIg fusion protein [3] = target: T2, hPD-L1mIg fusion protein; test: BLI, ForteBio Octet RED96; biotin-labeled hPD-L1-mouse Fc on SA sensors, 1:1 model
Protocol: All samples were prepared in PBS buffer (pH=7.4). The biotin-labeled hPD-L1-mouse Fc fusion protein was loaded onto SA sensors at a pre-determined loading threshold. scFv (PD-L1) was applied to the sensors at a concentration gradient of 3.125 nM-50 nM. Background subtraction was used to correct for sensor drifting. The data was fit to a 1:1 binding model using ForteBio's data analysis software in order to obtain the association (Kₒₙ) and dissociation (Koff) rates. The KD values were calculated based on Koff/Kₒₙ.

T2 sequence (Q9NZQ7 19-238): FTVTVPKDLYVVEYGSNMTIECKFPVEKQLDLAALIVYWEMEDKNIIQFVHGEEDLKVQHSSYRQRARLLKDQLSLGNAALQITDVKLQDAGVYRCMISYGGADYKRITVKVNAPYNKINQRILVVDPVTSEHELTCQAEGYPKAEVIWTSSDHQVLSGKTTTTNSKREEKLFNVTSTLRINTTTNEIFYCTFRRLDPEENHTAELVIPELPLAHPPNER
T1 sequence (Q9EP73 19-290): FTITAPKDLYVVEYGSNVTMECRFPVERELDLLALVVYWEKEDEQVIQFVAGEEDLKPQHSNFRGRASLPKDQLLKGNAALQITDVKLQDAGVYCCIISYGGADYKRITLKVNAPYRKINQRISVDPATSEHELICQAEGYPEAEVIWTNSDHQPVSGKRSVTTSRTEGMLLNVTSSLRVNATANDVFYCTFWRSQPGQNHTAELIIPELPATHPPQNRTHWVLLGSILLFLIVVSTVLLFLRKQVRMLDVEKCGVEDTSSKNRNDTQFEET

binding result [1]: binds
B1: anti-hPD-L1 mAb 5B7 (antibody, IgG1, V domains shown)
VH: EVQLQQSGAELVKPGASVKLSCTASGFNIKDTYMYWVKQRPEQGLECIGRIDPANDNTKYDPKFQGKATITADTSSNTAYVQLASLTSEDTAVYYCARAKNLLNYFDYWGQGTTLTVSS
VL: DIQMTQSPSSLSASLGERVTLSCRASQEISGYLSWLQQKPDGTIKRLIYATSTLDSGVPKRFSGSRSGSDYSLTISSLESEDFADYYCLQYAIYPLTFGAGTKLELKR
notes: also called anti hPD-L1 monoclonal antibody 5B7; anti-hPD-L1 monoclonal antibody

Kd (hPD-L1mIg fusion protein [2]): 0.128 nM | koff (hPD-L1mIg fusion protein [2]): 0.000118 s⁻¹ | kon (hPD-L1mIg fusion protein [2]): 924000 M⁻¹ s⁻¹
B2: anti-PD-L1 parental (mouse-human chimeric mAb) (antibody, human IgG1, kappa, V domains shown)
VH: B1 VH
VL: B1 VL
notes: its variable domains are the same; also called parental chimeric antibody; parental (PA200)

Kd (hPD-L1mIg fusion protein [3]): 6.92 nM | koff (hPD-L1mIg fusion protein [3]): 0.000225 s⁻¹ | kon (hPD-L1mIg fusion protein [3]): 32600 M⁻¹ s⁻¹
B3: parental humanized IgG1 positive control antibody (antibody, V domains shown)
VH: QVQLVQSGAEVKKPGASVKVSCKASGFNIKDTYMYWVRQAPGQGLEWMGRIDPANDNTKYAQKFQGRVTITADTSTSTAYMELSSLRSEDTAVYYCARAKNLLNYFDYWGQGTLVTVSS
VL: DIQMTQSPSSLSASVGDRVTITCRASQEISGYLSWLQQKPGKAPKRLIYATSTLQSGVPSRFSGSRSGTDYTLTISSLQPEDFATYYCLQYAIYPLTFGQGTKLEIKR
notes: also called anti-PD-L1 IgG1; Anti-Human PD-L1 IgG1

Kd (hPD-L1mIg fusion protein [2]): 0.557 nM | koff (hPD-L1mIg fusion protein [2]): 0.000811 s⁻¹ | kon (hPD-L1mIg fusion protein [2]): 1.46e+06 M⁻¹ s⁻¹
B4: anti-PD-L1 HC1 + LC2 (antibody, V domains shown)
VH: B3 VH
VL: B3 VL
notes: Humanized antibody, Humanized VH 1 + Humanized VL 2; also called H1+L2; H12

Kd (hPD-L1mIg fusion protein [2]): 1.84 nM | koff (hPD-L1mIg fusion protein [2]): 0.00417 s⁻¹ | kon (hPD-L1mIg fusion protein [2]): 2.26e+06 M⁻¹ s⁻¹
B5: anti-PD-L1 HC2 + LC3 (antibody, V domains shown)
VH: B3 VH with M48I, Q62P, S77N
VL: B3 VL with L36Y, Q55D, T69S
notes: Humanized antibody, Humanized VH 2 + Humanized VL 3; also called H2+L3; H23

Kd (hPD-L1mIg fusion protein [2]): 1 nM | koff (hPD-L1mIg fusion protein [2]): 0.00146 s⁻¹ | kon (hPD-L1mIg fusion protein [2]): 1.46e+06 M⁻¹ s⁻¹
B6: anti-PD-L1 HC3 + LC3 (antibody, V domains shown)
VH: B3 VH with Q1E, S77N
VL: B3 VL with L36Y, Q55D, T69S
notes: Humanized antibody, Humanized VH3 + Humanized VL 3; also called H3+L3; H33

Kd (hPD-L1mIg fusion protein [2]): 1.3 nM | koff (hPD-L1mIg fusion protein [2]): 0.00143 s⁻¹ | kon (hPD-L1mIg fusion protein [2]): 1.1e+06 M⁻¹ s⁻¹
B7: anti-PD-L1 HC1 + LC3 (antibody, V domains shown)
VH: B3 VH
VL: B3 VL with L36Y, Q55D, T69S
notes: Humanized antibody, Humanized VH 1 + Humanized VL 3; also called H1+L3; H13

Kd (hPD-L1mIg fusion protein [2]): 1.23 nM | koff (hPD-L1mIg fusion protein [2]): 0.00251 s⁻¹ | kon (hPD-L1mIg fusion protein [2]): 2.05e+06 M⁻¹ s⁻¹
B8: anti-PD-L1 HC2 + LC2 (antibody, V domains shown)
VH: B3 VH with M48I, Q62P, S77N
VL: B3 VL
notes: Humanized antibody, Humanized VH 2 + Humanized VL 2; also called H2+L2; H22

Kd (hPD-L1mIg fusion protein [2]): 0.666 nM | koff (hPD-L1mIg fusion protein [2]): 0.0011 s⁻¹ | kon (hPD-L1mIg fusion protein [2]): 1.65e+06 M⁻¹ s⁻¹
B9: anti-PD-L1 HC3 + LC2 (antibody, V domains shown)
VH: B3 VH with Q1E, S77N
VL: B3 VL
notes: Humanized antibody, Humanized VH3 + Humanized VL 2; also called H3+L2; H32

Kd (hPD-L1mIg fusion protein [2]): 2.18 nM | koff (hPD-L1mIg fusion protein [2]): 0.00406 s⁻¹ | kon (hPD-L1mIg fusion protein [2]): 1.86e+06 M⁻¹ s⁻¹
B10: anti-PD-L1 HC2 + LC1 (antibody, V domains shown)
VH: B3 VH with M48I, Q62P, S77N
VL: B3 VL with L36Y, Q55D, R66G, Y71F
notes: Humanized antibody, Humanized VH 2 + Humanized VL 1; also called H2+L1; H21

Kd (hPD-L1mIg fusion protein [2]): 1.17 nM | koff (hPD-L1mIg fusion protein [2]): 0.00146 s⁻¹ | kon (hPD-L1mIg fusion protein [2]): 1.25e+06 M⁻¹ s⁻¹
B11: anti-PD-L1 HC3 + LC1 (antibody, V domains shown)
VH: B3 VH with Q1E, S77N
VL: B3 VL with L36Y, Q55D, R66G, Y71F
notes: Humanized antibody, Humanized VH3 + Humanized VL 1; also called H3+L1; H31

Kd (hPD-L1mIg fusion protein [2]): 1.38 nM | koff (hPD-L1mIg fusion protein [2]): 0.0012 s⁻¹ | kon (hPD-L1mIg fusion protein [2]): 869000 M⁻¹ s⁻¹
B12: anti-PD-L1 HC1 + LC1 (antibody, V domains shown)
VH: B3 VH
VL: B3 VL with L36Y, Q55D, R66G, Y71F
notes: Humanized antibody, Humanized VH 1 + Humanized VL 1; also called H1+L1; H11
